Data taken from article PMC5228590.

Biological target: vimentin (mouse (endogenous in MC-3T3 and in primary calvarial osteoblasts of C57/B6J mice)) (UniProt P20152)
Assay: co-IP

Chain of vimentin (mouse (endogenous in MC-3T3 and in primary calvarial osteoblasts of C57/B6J mice)) (P20152 whole entry): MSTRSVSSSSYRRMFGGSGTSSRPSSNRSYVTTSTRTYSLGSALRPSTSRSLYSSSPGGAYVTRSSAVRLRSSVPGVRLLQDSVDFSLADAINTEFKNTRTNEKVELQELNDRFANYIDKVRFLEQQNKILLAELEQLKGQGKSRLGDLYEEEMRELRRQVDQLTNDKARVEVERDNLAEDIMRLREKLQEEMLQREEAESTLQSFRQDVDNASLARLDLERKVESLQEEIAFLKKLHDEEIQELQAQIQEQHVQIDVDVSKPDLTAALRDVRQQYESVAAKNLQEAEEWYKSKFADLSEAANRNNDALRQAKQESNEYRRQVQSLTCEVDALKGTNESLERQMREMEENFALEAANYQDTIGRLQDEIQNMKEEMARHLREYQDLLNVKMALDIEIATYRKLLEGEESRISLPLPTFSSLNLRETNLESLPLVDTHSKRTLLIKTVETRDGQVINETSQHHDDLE

- fold increase of the association with IGF-I: 6.7 fold
- percent reduction of the association with the PKCζ pseudosubstrate inhibitor: 62%
Substance: receptor protein tyrosine phosphatase β, B9EKR1 25-2312
